Results: patent publication US6004757
Where no end group is shown, it is not given here.

Assays:
[1] = biological target: chicken pp60^v-src (chicken)

GST-c-abl, sequence (P00519 whole entry): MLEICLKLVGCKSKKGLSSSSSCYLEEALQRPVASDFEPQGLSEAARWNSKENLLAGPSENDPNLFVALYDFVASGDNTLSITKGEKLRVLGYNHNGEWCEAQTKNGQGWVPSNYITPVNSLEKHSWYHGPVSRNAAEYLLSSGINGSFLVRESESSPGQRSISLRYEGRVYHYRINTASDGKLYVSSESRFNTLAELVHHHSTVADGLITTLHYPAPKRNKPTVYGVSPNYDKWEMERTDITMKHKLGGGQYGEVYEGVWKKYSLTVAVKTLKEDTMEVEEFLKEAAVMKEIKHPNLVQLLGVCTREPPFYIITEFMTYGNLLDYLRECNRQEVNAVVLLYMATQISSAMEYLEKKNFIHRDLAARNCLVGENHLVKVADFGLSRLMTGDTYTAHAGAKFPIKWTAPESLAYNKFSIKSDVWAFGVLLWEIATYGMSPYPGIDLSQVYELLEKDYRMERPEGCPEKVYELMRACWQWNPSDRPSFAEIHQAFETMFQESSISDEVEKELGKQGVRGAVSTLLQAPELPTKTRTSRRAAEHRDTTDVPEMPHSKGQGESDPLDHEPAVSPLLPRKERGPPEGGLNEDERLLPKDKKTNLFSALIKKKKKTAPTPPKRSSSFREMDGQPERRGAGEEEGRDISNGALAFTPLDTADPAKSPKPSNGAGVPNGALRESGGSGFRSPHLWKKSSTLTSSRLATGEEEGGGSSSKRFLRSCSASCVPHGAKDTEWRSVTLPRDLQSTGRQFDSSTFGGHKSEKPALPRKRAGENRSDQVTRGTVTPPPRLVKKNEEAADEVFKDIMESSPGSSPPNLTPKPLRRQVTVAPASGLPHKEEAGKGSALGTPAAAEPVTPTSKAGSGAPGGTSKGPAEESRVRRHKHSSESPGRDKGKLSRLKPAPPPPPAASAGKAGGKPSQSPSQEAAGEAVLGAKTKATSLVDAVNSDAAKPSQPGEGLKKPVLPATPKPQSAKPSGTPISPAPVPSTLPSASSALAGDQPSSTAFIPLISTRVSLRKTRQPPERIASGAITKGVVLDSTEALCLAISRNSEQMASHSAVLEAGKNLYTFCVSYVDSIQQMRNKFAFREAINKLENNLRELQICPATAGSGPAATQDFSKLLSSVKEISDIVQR

With IEKIGEGTYGVVYKGRHKTT (not fully specified) [synthetic peptide based upon the site of tyrosine phosphorylation on p33^cdc2 (Y15)] the Km (µM) of phosphorylation of the peptide by the kinase [1] was 139 µM.

For ARRPMSPKKKA [peptide Ala-Arg-Arg-Pro-Met-Ser-Pro-Lys-Lys-Lys-Ala], the Km (µM) of phosphorylation of the peptide by the kinase (GST-cyclinA/p33^CDK2) was 15 µM and the Km (µM) of phosphorylation of the peptide by the kinase (GST-cyclin B/p33^cdc2) was 2.4 µM.

In the case of EAIYAAPFAKKK [synthetic abl optimal peptide …], the Km of phosphorylation of the peptide by the kinase (GST-c-abl) is reported as 4 µM.
